T1: H-2 L^d (mouse, UniProt P01897 25-309, limits assumed)
T1 construct: construct not described
T1 sequence (MHC heavy, looked up): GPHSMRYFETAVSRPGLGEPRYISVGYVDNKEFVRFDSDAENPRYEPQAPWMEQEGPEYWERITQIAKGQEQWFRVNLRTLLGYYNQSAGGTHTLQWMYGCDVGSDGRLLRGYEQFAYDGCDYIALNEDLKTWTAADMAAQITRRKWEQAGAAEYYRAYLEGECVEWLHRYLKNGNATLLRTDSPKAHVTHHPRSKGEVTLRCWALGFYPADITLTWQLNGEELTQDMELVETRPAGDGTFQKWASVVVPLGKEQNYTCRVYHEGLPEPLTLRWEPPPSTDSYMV

T2: H-2 D^d (mouse, UniProt P01900 25-311, limits assumed)
T2 construct: construct not described
T2 sequence (MHC heavy, looked up): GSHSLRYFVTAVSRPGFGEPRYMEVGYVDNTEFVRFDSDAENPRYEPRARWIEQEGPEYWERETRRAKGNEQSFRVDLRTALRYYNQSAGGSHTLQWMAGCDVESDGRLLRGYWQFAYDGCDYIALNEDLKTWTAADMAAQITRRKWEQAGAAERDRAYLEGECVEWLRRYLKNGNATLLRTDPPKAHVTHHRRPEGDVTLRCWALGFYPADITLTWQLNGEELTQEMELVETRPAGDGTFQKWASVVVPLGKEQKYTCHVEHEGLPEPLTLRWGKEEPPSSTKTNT

The first assay deals with H-2 K^d (mouse, UniProt P01902 22-305). In words: competition with radiolabeled standard peptide, purified H-2 K^d.
Chain of H-2 K^d (P01902 22-305): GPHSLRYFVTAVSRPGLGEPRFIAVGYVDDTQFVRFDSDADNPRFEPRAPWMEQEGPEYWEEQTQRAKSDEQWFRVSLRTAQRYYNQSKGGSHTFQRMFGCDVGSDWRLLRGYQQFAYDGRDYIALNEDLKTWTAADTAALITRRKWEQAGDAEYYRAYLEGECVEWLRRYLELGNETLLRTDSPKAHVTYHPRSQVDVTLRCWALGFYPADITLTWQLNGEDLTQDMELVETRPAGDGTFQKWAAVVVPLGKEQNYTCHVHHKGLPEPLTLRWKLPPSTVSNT
Regarding LDMLQALCIP [Tnpo3.3 WT peptide LDMLQALCIP], the IC50 came to 111 nM. Still for that read-out and setting: then LDMLQALC [Tnpo3.4 WT peptide LDMLQALC], with 89 nM; and SYMLQALCIP [Tnpo3.3 Mut peptide SYMLQALCIP], with 67 nM. EYLDLQTQG [Zfp236.2 Mut peptide EYLDLQTQG] displayed an IC50 of 10000 nM. SYMLQALC [Tnpo3.4 Mut peptide SYMLQALC] had an IC50 of 14900 nM.

Another assay addresses T1, H-2 L^d. In words: direct peptide-binding studies.
For QVFPGLMEL [Atxn10.1 Mut peptide QVFPGLMEL], the binding result is listed as “no binding”. Still for that read-out and setting: for ELQGLLEDEL [Ccdc136 Mut peptide ELQGLLEDEL] the value was “no binding”; for DYVPMEQPR [Alkbh6.2 Mut peptide DYVPMEQPR], “no binding”; for GFHGCIHEVL [Slit3 Mut peptide GFHGCIHEVL], “no binding”. The same measure, in the same setting: for ALKSEEKTL [Stau1.4 Mut peptide ALKSEEKTL] the value was “no binding”; for VFPGLMEL [Atxn10.2 Mut peptide VFPGLMEL], “no binding”.

For the next assay, the target named is T2, H-2 D^d. In words: direct peptide-binding studies.
With QVFPGLMEL [Atxn10.1 Mut peptide QVFPGLMEL], the binding result is reported as “no binding”. Still for that read-out and setting: then ELQGLLEDEL [Ccdc136 Mut peptide ELQGLLEDEL], with “no binding”; and DYVPMEQPR [Alkbh6.2 Mut peptide DYVPMEQPR], with “no binding”. Regarding GFHGCIHEVL [Slit3 Mut peptide GFHGCIHEVL], the binding result is recorded as “no binding”. The same measure, in the same setting: then ALKSEEKTL [Stau1.4 Mut peptide ALKSEEKTL], with “no binding”. On the same count and under the same terms, then VFPGLMEL [Atxn10.2 Mut peptide VFPGLMEL], with “no binding”.

The record behind these values is patent publication US20170224799A1 (UNIVERSITY OF CONNECTICUT, published 2017).
